Common to all, as to conditions: protein: recombinant; tags: 10xHis-MBP N-terminal; blunt DNA 54 bp; R-loop
In series [1] the target is T1, SpuFz1 (Spizellomyces punctatus ATCC 48900, UniProt A0A0L0H5U9 1-622). Description: cryo-EM structure; State I, 8-bp heteroduplex; RNP purification buffer 20 mM HEPES pH 7.5, 150 mM NaCl, 2 mM MgCl2, 4.5 mM TCEP, 4 C; ternary complex assembly conditions not in the material.
The target of series [2] is T1, SpuFz1. Description: cryo-EM structure; State IV, dsDNA unwound on RuvC; RNP purification buffer 20 mM HEPES pH 7.5, 150 mM NaCl, 2 mM MgCl2, 4.5 mM TCEP, 4 C; ternary complex assembly conditions not in the material.
For series [3], the target named is T1, SpuFz1. Description: cryo-EM structure; State V, 15-bp heteroduplex, lid down; RNP purification buffer 20 mM HEPES pH 7.5, 150 mM NaCl, 2 mM MgCl2, 4.5 mM TCEP, 4 C; ternary complex assembly conditions not in the material.
The target in series [4] is T1, SpuFz1. Description: cryo-EM structure; State VI, 15-bp heteroduplex, weak lid density; RNP purification buffer 20 mM HEPES pH 7.5, 150 mM NaCl, 2 mM MgCl2, 4.5 mM TCEP, 4 C; ternary complex assembly conditions not in the material.

T1 sequence (A0A0L0H5U9 entry or part of it): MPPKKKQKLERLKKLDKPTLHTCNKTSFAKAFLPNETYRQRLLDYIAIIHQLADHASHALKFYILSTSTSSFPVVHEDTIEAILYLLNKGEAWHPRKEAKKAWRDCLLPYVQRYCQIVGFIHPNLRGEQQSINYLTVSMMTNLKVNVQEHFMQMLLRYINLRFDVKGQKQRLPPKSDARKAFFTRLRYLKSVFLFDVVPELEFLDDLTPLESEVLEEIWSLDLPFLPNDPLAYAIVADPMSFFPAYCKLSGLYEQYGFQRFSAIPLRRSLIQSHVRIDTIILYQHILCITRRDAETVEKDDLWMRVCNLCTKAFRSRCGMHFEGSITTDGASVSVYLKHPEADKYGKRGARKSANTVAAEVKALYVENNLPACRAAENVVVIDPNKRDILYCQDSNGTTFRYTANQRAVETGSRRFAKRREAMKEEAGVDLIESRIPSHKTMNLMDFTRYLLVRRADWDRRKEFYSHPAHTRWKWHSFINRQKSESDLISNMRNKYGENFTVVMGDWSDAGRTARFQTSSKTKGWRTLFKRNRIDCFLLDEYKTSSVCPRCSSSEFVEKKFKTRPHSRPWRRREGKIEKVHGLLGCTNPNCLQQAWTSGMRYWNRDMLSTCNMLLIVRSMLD

B1: SpuFz1 omegaRNA + ds2 (mixed)
RNA: GUUUUCCGAGCCGGUUGUCGCGCGGUUCAAUCCCUGGUGCGGGUGCUAGUGCCAAUACCCACCGGCUCCGCACUAUCUAUAGGUUAUGA
DNA 1: ATTCGAGCTCGGTACCCGGGCATATCTATAGGTTATGAAATCAAATTACAAATA
DNA 2: TATTTGTAATTTGATTTCATAACCTATAGATATGCCCGGGTACCGAGCTCGAAT
modifications: phosphorothioates, TS partially modified, NTS unmodified
As for B1, the binding result with SpuFz1 [1] is on record as “binds”.

B2: SpuFz1 omegaRNA + ds3 (mixed)
RNA: B1 RNA
DNA 1: B1 DNA 1
DNA 2: B1 DNA 2
modifications: phosphorothioates, NTS partially modified, TS unmodified
With B2, in the series with SpuFz1 [2], the binding result is “binds”.

B3: SpuFz1 omegaRNA + ds5 (mixed)
RNA: B1 RNA
DNA 1: B1 DNA 1
DNA 2: B1 DNA 2
modifications: phosphorothioates, TS fully modified, NTS unmodified
For the molecule B3, the binding result with SpuFz1 [3] was “binds”.

B4: SpuFz1 omegaRNA + ds6 (mixed)
RNA: B1 RNA
DNA 1: B1 DNA 1
DNA 2: B1 DNA 2
modifications: phosphorothioates, NTS fully modified, TS unmodified
Consider B4, for which, in the series with SpuFz1 [4], the binding result is “binds”.

The values above are taken from paper PMC11423790, “Structural Insights into the Diversity and DNA Cleavage Mechanism of Fanzor”.
